Laboratory results reported in the supplement of paper PMC10065799, “High-throughput profiling of sequence recognition by tyrosine kinases and SH2 domains using bacterial peptide display” (eLife, 2023).

How the values were obtained:
Grb2 SH2 = Grb2 SH2 (UniProt P62993); test: SH2 binding enrichment of the phosphorylated peptide, bacterial display (enrichment ratio); higher = better substrate or ligand; peptides without Tyr show the background
SHP2-C SH2 = test: as above
c-Src SH2 = test: as above
EPHB1 = EPHB1 (UniProt P54762); test: phosphorylation enrichment, bacterial display (enrichment ratio); higher = better substrate or ligand; peptides without Tyr show the background
EPHB1, sequence (P54762 whole entry, looked up): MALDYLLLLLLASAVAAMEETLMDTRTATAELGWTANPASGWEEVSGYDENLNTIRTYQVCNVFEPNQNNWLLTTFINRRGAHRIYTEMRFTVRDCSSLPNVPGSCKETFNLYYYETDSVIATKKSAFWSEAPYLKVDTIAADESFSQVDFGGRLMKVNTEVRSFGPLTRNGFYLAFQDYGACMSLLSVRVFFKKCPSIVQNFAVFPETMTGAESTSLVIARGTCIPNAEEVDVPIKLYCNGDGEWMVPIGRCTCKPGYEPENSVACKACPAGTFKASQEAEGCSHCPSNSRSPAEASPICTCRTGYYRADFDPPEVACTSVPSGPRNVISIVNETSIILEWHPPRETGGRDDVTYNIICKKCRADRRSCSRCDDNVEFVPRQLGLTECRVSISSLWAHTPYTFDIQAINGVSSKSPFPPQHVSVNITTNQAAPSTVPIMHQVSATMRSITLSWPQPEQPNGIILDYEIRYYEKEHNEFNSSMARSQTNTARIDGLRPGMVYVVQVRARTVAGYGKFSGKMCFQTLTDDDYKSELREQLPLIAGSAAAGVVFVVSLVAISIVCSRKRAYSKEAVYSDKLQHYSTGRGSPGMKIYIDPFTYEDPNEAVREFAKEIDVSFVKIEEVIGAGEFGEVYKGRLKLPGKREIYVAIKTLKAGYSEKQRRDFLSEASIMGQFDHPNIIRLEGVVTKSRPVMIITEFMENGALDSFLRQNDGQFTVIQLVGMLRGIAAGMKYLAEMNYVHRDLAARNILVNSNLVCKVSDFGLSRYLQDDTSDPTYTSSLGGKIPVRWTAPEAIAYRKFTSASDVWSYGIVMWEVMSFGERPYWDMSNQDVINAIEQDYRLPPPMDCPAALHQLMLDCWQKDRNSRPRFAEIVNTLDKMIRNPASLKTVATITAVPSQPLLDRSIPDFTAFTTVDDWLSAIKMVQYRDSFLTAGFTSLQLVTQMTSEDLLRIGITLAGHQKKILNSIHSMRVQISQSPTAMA

c-Src = test: as above
Fyn = Fyn (UniProt P06241); test: as above
Fyn, sequence (P06241 whole entry, looked up): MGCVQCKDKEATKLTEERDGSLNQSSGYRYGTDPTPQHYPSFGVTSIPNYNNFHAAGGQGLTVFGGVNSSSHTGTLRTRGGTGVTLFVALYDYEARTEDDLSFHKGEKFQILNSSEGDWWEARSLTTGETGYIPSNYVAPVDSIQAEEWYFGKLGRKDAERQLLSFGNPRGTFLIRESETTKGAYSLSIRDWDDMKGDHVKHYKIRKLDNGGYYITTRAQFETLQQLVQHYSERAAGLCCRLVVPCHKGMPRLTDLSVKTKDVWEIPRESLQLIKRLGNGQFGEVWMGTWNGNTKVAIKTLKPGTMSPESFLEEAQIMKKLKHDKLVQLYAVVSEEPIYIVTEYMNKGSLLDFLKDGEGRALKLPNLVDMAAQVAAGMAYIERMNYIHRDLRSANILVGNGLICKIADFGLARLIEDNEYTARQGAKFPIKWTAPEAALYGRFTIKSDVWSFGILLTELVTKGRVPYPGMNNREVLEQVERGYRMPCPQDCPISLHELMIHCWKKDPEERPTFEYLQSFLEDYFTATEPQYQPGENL

Jak2 = Jak2 (UniProt O60674); test: as above
Fes = Fes (UniProt P07332); test: as above
Fes, sequence (P07332 whole entry, looked up): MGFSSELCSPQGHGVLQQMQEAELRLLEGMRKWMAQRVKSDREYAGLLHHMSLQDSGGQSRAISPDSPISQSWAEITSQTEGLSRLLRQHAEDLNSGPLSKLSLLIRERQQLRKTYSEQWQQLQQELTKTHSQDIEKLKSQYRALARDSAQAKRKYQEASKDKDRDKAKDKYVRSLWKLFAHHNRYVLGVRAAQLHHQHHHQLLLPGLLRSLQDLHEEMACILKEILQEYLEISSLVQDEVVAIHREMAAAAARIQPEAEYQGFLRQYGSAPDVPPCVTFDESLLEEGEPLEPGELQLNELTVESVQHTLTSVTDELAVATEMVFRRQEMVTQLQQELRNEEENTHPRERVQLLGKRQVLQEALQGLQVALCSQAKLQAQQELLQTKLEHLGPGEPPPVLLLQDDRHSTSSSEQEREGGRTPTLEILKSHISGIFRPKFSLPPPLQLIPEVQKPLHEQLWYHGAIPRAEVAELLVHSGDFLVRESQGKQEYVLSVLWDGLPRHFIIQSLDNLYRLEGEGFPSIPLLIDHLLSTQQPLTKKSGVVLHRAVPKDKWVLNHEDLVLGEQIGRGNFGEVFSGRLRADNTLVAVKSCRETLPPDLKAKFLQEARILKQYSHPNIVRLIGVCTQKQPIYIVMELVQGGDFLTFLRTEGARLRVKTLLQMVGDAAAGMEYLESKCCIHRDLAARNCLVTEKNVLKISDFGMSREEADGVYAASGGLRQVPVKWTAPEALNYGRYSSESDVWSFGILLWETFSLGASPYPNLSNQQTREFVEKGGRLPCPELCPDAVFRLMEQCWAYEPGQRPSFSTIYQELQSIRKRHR

AncSZ = test: as above
EPHB2 = EPHB2 (UniProt P29323); test: as above
EPHB2, sequence (P29323 whole entry, looked up): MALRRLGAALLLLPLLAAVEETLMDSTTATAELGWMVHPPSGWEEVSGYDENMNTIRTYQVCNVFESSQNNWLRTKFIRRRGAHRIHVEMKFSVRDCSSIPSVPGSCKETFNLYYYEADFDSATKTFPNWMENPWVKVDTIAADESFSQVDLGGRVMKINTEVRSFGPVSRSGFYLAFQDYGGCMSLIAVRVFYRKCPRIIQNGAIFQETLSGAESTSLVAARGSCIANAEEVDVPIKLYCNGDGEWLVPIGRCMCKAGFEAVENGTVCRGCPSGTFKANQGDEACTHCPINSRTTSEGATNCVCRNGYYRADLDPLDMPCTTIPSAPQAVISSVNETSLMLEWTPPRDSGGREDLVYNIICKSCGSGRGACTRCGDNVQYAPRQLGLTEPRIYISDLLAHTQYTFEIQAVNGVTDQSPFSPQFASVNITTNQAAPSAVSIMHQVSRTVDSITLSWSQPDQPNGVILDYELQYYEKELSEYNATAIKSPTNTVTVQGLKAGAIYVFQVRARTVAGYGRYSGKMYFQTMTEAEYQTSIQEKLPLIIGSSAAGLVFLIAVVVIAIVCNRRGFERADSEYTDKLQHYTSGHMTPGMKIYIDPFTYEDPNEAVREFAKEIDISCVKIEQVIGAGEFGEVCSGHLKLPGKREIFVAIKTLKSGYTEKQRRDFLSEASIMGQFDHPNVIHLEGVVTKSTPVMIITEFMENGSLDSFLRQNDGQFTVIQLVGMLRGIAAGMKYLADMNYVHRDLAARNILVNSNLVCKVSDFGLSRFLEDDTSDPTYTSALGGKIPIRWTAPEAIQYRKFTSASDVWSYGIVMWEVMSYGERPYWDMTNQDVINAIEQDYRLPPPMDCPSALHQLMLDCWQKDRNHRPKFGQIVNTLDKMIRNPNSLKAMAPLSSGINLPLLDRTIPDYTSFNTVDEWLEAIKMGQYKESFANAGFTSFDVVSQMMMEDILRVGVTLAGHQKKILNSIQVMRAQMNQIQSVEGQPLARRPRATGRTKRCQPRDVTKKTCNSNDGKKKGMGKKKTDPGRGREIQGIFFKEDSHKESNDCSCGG

FGFR1 = FGFR1 (UniProt P11362); test: as above
Hck = Hck (UniProt P08631); test: as above
Hck, sequence (P08631 whole entry, looked up): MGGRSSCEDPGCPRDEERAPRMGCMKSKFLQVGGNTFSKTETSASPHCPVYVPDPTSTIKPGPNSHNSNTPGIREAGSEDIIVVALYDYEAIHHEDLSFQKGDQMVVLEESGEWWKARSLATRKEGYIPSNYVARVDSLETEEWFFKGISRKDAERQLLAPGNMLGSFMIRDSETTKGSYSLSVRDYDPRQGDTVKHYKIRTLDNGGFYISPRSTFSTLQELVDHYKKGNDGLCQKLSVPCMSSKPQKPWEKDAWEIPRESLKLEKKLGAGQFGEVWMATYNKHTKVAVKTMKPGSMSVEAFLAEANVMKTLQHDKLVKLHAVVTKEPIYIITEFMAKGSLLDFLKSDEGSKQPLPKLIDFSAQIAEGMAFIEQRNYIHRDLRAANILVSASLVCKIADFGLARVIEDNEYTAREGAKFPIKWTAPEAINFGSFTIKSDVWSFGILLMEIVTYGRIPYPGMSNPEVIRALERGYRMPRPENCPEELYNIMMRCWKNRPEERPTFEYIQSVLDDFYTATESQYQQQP

c-Abl (mouse) = test: as above
Fer (mouse) = test: as above
FGFR3 = FGFR3 (UniProt P22607); test: as above
FGFR3, sequence (P22607 whole entry, looked up): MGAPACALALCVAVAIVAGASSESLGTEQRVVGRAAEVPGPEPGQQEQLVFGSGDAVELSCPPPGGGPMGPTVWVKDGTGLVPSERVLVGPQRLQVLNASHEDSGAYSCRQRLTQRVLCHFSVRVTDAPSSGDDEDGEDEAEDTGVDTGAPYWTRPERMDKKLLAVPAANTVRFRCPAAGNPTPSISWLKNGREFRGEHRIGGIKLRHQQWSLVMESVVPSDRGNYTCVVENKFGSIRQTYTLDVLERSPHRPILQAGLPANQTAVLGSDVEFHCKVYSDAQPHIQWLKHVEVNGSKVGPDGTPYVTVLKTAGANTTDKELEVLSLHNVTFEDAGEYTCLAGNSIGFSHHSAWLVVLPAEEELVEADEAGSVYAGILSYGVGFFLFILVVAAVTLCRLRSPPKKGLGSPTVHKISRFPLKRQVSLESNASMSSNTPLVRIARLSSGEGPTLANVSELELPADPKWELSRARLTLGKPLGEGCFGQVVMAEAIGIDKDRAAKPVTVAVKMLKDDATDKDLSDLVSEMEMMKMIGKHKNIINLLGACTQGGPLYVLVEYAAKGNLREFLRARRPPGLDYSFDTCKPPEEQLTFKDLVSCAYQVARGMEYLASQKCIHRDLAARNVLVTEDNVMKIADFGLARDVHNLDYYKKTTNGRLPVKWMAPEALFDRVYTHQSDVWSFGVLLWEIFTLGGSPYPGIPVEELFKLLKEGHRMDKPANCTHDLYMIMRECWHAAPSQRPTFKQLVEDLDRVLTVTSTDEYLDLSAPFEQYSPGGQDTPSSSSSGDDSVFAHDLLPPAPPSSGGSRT

MERTK = MERTK (UniProt Q12866); test: as above
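Throughout, for SH2 binding enrichment of the phosphorylated peptide, bacterial display: peptide library displayed on the E. coli surface as eCPX fusions, selected cells deep-sequenced, score is each peptide's frequency after selection divided by its frequency in the input.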
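Throughout, for phosphorylation enrichment, bacterial display: 11-residue human phosphosite peptides and single-mutation variants displayed on the E. coli surface, counted by deep sequencing, each peptide's frequency after selection divided by its frequency in the unselected input library; frequency after pTyr selection over input frequency; kinase dosed for 20-30% of maximal phosphorylation in three min.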

Grb2 SH2, sequence (P62993 whole entry, looked up): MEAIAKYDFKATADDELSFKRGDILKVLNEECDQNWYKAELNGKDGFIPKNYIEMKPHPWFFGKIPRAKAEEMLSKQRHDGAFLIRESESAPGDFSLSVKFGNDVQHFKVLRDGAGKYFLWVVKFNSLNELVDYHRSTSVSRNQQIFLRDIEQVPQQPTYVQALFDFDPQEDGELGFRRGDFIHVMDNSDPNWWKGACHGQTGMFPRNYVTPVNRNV

VDSGVYAVPPP [BCAR1_Y410]
SH2 binding enrichment (Grb2 SH2): 0.863 | SH2 binding enrichment (SHP2-C SH2): 0.624 | SH2 binding enrichment (c-Src SH2): 0.434 | phosphorylation enrichment (EPHB1): 7.54 | phosphorylation enrichment (c-Src): 4.94 | phosphorylation enrichment (Fyn): 8.7 | phosphorylation enrichment (Jak2): 0.709 | phosphorylation enrichment (Fes): 0.795 | phosphorylation enrichment (AncSZ): 2.04 | phosphorylation enrichment (EPHB2): 19.6 | phosphorylation enrichment (FGFR1): 1.2 | phosphorylation enrichment (Hck): 8.02 | phosphorylation enrichment (c-Abl (mouse)): 20.9 | phosphorylation enrichment (Fer (mouse)): 5.46 | phosphorylation enrichment (FGFR3): 1.01 | phosphorylation enrichment (MERTK): 9.97

VFLGAYDHFLP [SLC22A5_Y486_R488H_YF]
SH2 binding enrichment (Grb2 SH2): 0.833 | SH2 binding enrichment (SHP2-C SH2): 1 | SH2 binding enrichment (c-Src SH2): 1.46 | phosphorylation enrichment (EPHB1): 1.8 | phosphorylation enrichment (c-Src): 3.29 | phosphorylation enrichment (Fyn): 3.08 | phosphorylation enrichment (Jak2): 0.726 | phosphorylation enrichment (Fes): 0.955 | phosphorylation enrichment (AncSZ): 1.36 | phosphorylation enrichment (EPHB2): 3.32 | phosphorylation enrichment (FGFR1): 0.611 | phosphorylation enrichment (Hck): 2.73 | phosphorylation enrichment (c-Abl (mouse)): 1.06 | phosphorylation enrichment (Fer (mouse)): 4.81 | phosphorylation enrichment (FGFR3): 0.811 | phosphorylation enrichment (MERTK): 6.29

VFSTDYFRVGG [NTRK2_Y706_YF]
SH2 binding enrichment (Grb2 SH2): 0.761 | SH2 binding enrichment (SHP2-C SH2): 0.697 | SH2 binding enrichment (c-Src SH2): 0.556 | phosphorylation enrichment (EPHB1): 0.826 | phosphorylation enrichment (c-Src): 0.757 | phosphorylation enrichment (Fyn): 0.464 | phosphorylation enrichment (Jak2): 8.12 | phosphorylation enrichment (Fes): 0.859 | phosphorylation enrichment (AncSZ): 1.69 | phosphorylation enrichment (EPHB2): 0.709 | phosphorylation enrichment (FGFR1): 6.21 | phosphorylation enrichment (Hck): 0.459 | phosphorylation enrichment (c-Abl (mouse)): 0.734 | phosphorylation enrichment (Fer (mouse)): 0.499 | phosphorylation enrichment (FGFR3): 3.75 | phosphorylation enrichment (MERTK): 0.587

VGTKRYMAPKV [ACVRL1_Y375_E379K]
SH2 binding enrichment (Grb2 SH2): 1.19 | SH2 binding enrichment (SHP2-C SH2): 1.44 | SH2 binding enrichment (c-Src SH2): 0.632 | phosphorylation enrichment (EPHB1): 0.274 | phosphorylation enrichment (c-Src): 0.304 | phosphorylation enrichment (Fyn): 0.301 | phosphorylation enrichment (Jak2): 0.482 | phosphorylation enrichment (Fes): 0.456 | phosphorylation enrichment (AncSZ): 0.377 | phosphorylation enrichment (EPHB2): 0.282 | phosphorylation enrichment (FGFR1): 0.391 | phosphorylation enrichment (Hck): 0.327 | phosphorylation enrichment (c-Abl (mouse)): 0.625 | phosphorylation enrichment (Fer (mouse)): 0.443 | phosphorylation enrichment (FGFR3): 0.372 | phosphorylation enrichment (MERTK): 0.424

VHFLVYHHHHH [CACNA1H_Y519_H516Y_YF]
SH2 binding enrichment (Grb2 SH2): 1.21 | SH2 binding enrichment (SHP2-C SH2): 0.755 | SH2 binding enrichment (c-Src SH2): 0.791 | phosphorylation enrichment (EPHB1): 0.555 | phosphorylation enrichment (c-Src): 0.453 | phosphorylation enrichment (Fyn): 0.527 | phosphorylation enrichment (Jak2): 1.11 | phosphorylation enrichment (Fes): 1.11 | phosphorylation enrichment (AncSZ): 0.88 | phosphorylation enrichment (EPHB2): 0.661 | phosphorylation enrichment (FGFR1): 0.437 | phosphorylation enrichment (Hck): 0.416 | phosphorylation enrichment (c-Abl (mouse)): 0.863 | phosphorylation enrichment (Fer (mouse)): 0.493 | phosphorylation enrichment (FGFR3): 0.834 | phosphorylation enrichment (MERTK): 0.388

VHNLDYFKKTT [FGFR3_Y647_YF]
SH2 binding enrichment (Grb2 SH2): 0.782 | SH2 binding enrichment (SHP2-C SH2): 0.678 | SH2 binding enrichment (c-Src SH2): 0.406 | phosphorylation enrichment (EPHB1): 0.512 | phosphorylation enrichment (c-Src): 0.523 | phosphorylation enrichment (Fyn): 0.471 | phosphorylation enrichment (Jak2): 0.857 | phosphorylation enrichment (Fes): 0.91 | phosphorylation enrichment (AncSZ): 0.806 | phosphorylation enrichment (EPHB2): 0.425 | phosphorylation enrichment (FGFR1): 0.437 | phosphorylation enrichment (Hck): 0.46 | phosphorylation enrichment (c-Abl (mouse)): 0.573 | phosphorylation enrichment (Fer (mouse)): 0.428 | phosphorylation enrichment (FGFR3): 0.617 | phosphorylation enrichment (MERTK): 0.505

VHNLNYFKKTT [FGFR3_Y647_D646N_YF]
SH2 binding enrichment (Grb2 SH2): 0.987 | SH2 binding enrichment (SHP2-C SH2): 0.678 | SH2 binding enrichment (c-Src SH2): 0.377 | phosphorylation enrichment (EPHB1): 0.36 | phosphorylation enrichment (c-Src): 0.425 | phosphorylation enrichment (Fyn): 0.302 | phosphorylation enrichment (Jak2): 0.467 | phosphorylation enrichment (Fes): 0.607 | phosphorylation enrichment (AncSZ): 0.402 | phosphorylation enrichment (EPHB2): 0.314 | phosphorylation enrichment (FGFR1): 0.355 | phosphorylation enrichment (Hck): 0.347 | phosphorylation enrichment (c-Abl (mouse)): 0.442 | phosphorylation enrichment (Fer (mouse)): 0.346 | phosphorylation enrichment (FGFR3): 0.369 | phosphorylation enrichment (MERTK): 0.311

VIVRMYDFHVL [RPF2_Y109_G106V_YF]
SH2 binding enrichment (Grb2 SH2): 1.75 | SH2 binding enrichment (SHP2-C SH2): 1.28 | SH2 binding enrichment (c-Src SH2): 1.12 | phosphorylation enrichment (EPHB1): 1.33 | phosphorylation enrichment (c-Src): 0.473 | phosphorylation enrichment (Fyn): 0.555 | phosphorylation enrichment (Jak2): 0.901 | phosphorylation enrichment (Fes): 1.01 | phosphorylation enrichment (AncSZ): 1.08 | phosphorylation enrichment (EPHB2): 1.55 | phosphorylation enrichment (FGFR1): 0.462 | phosphorylation enrichment (Hck): 0.488 | phosphorylation enrichment (c-Abl (mouse)): 0.885 | phosphorylation enrichment (Fer (mouse)): 4.04 | phosphorylation enrichment (FGFR3): 0.597 | phosphorylation enrichment (MERTK): 1.87

VLTSKYPGGGG [HBA1_Y141_R142P]
SH2 binding enrichment (Grb2 SH2): 0.737 | SH2 binding enrichment (SHP2-C SH2): 0.612 | SH2 binding enrichment (c-Src SH2): 0.366 | phosphorylation enrichment (EPHB1): 0.229 | phosphorylation enrichment (c-Src): 0.276 | phosphorylation enrichment (Fyn): 0.344 | phosphorylation enrichment (Jak2): 0.441 | phosphorylation enrichment (Fes): 0.443 | phosphorylation enrichment (AncSZ): 0.349 | phosphorylation enrichment (EPHB2): 0.374 | phosphorylation enrichment (FGFR1): 0.28 | phosphorylation enrichment (Hck): 0.296 | phosphorylation enrichment (c-Abl (mouse)): 0.342 | phosphorylation enrichment (Fer (mouse)): 0.303 | phosphorylation enrichment (FGFR3): 0.342 | phosphorylation enrichment (MERTK): 0.392

VPLLEYYWDIF [CDAN1_Y712_R714W]
SH2 binding enrichment (Grb2 SH2): 1.54 | SH2 binding enrichment (SHP2-C SH2): 1.08 | SH2 binding enrichment (c-Src SH2): 1.12 | phosphorylation enrichment (EPHB1): 2.27 | phosphorylation enrichment (c-Src): 1.67 | phosphorylation enrichment (Fyn): 0.879 | phosphorylation enrichment (Jak2): 2.12 | phosphorylation enrichment (Fes): 1.46 | phosphorylation enrichment (AncSZ): 1.43 | phosphorylation enrichment (EPHB2): 1.54 | phosphorylation enrichment (FGFR1): 7.97 | phosphorylation enrichment (Hck): 0.813 | phosphorylation enrichment (c-Abl (mouse)): 0.923 | phosphorylation enrichment (Fer (mouse)): 0.521 | phosphorylation enrichment (FGFR3): 6.87 | phosphorylation enrichment (MERTK): 1.54

VQVAYYTMMMN [SPATA17_Y84]
SH2 binding enrichment (Grb2 SH2): 1.21 | SH2 binding enrichment (SHP2-C SH2): 1.56 | SH2 binding enrichment (c-Src SH2): 1.56 | phosphorylation enrichment (EPHB1): 2.52 | phosphorylation enrichment (c-Src): 2.56 | phosphorylation enrichment (Fyn): 1.48 | phosphorylation enrichment (Jak2): 4.11 | phosphorylation enrichment (Fes): 1.54 | phosphorylation enrichment (AncSZ): 1.81 | phosphorylation enrichment (EPHB2): 1.17 | phosphorylation enrichment (FGFR1): 8.59 | phosphorylation enrichment (Hck): 1.65 | phosphorylation enrichment (c-Abl (mouse)): 1.15 | phosphorylation enrichment (Fer (mouse)): 3.67 | phosphorylation enrichment (FGFR3): 6.58 | phosphorylation enrichment (MERTK): 6.47

VRTGIYHGGEP [PIK3CA_Y361]
SH2 binding enrichment (Grb2 SH2): 0.888 | SH2 binding enrichment (SHP2-C SH2): 0.588 | SH2 binding enrichment (c-Src SH2): 0.51 | phosphorylation enrichment (EPHB1): 0.419 | phosphorylation enrichment (c-Src): 0.498 | phosphorylation enrichment (Fyn): 0.568 | phosphorylation enrichment (Jak2): 0.558 | phosphorylation enrichment (Fes): 0.659 | phosphorylation enrichment (AncSZ): 0.641 | phosphorylation enrichment (EPHB2): 0.421 | phosphorylation enrichment (FGFR1): 0.542 | phosphorylation enrichment (Hck): 0.586 | phosphorylation enrichment (c-Abl (mouse)): 0.496 | phosphorylation enrichment (Fer (mouse)): 0.457 | phosphorylation enrichment (FGFR3): 0.407 | phosphorylation enrichment (MERTK): 0.431

VSFDEYRFRSV [CFTR_Y515_YF]
SH2 binding enrichment (Grb2 SH2): 0.776 | SH2 binding enrichment (SHP2-C SH2): 0.55 | SH2 binding enrichment (c-Src SH2): 0.477 | phosphorylation enrichment (EPHB1): 0.519 | phosphorylation enrichment (c-Src): 0.614 | phosphorylation enrichment (Fyn): 0.489 | phosphorylation enrichment (Jak2): 1.14 | phosphorylation enrichment (Fes): 1.22 | phosphorylation enrichment (AncSZ): 0.972 | phosphorylation enrichment (EPHB2): 0.591 | phosphorylation enrichment (FGFR1): 0.515 | phosphorylation enrichment (Hck): 0.574 | phosphorylation enrichment (c-Abl (mouse)): 0.862 | phosphorylation enrichment (Fer (mouse)): 0.567 | phosphorylation enrichment (FGFR3): 0.699 | phosphorylation enrichment (MERTK): 0.6

VSFGEYRFRSV [CFTR_Y515_D513G_YF]
SH2 binding enrichment (Grb2 SH2): 0.792 | SH2 binding enrichment (SHP2-C SH2): 0.9 | SH2 binding enrichment (c-Src SH2): 0.528 | phosphorylation enrichment (EPHB1): 0.431 | phosphorylation enrichment (c-Src): 0.489 | phosphorylation enrichment (Fyn): 0.356 | phosphorylation enrichment (Jak2): 0.574 | phosphorylation enrichment (Fes): 0.801 | phosphorylation enrichment (AncSZ): 0.668 | phosphorylation enrichment (EPHB2): 0.443 | phosphorylation enrichment (FGFR1): 0.523 | phosphorylation enrichment (Hck): 0.469 | phosphorylation enrichment (c-Abl (mouse)): 0.672 | phosphorylation enrichment (Fer (mouse)): 0.402 | phosphorylation enrichment (FGFR3): 0.513 | phosphorylation enrichment (MERTK): 0.395

VSSPKYGGDDE [TMCC2_Y473_S475G]
SH2 binding enrichment (Grb2 SH2): 1.06 | SH2 binding enrichment (SHP2-C SH2): 0.54 | SH2 binding enrichment (c-Src SH2): 0.482 | phosphorylation enrichment (EPHB1): 0.437 | phosphorylation enrichment (c-Src): 0.424 | phosphorylation enrichment (Fyn): 0.535 | phosphorylation enrichment (Jak2): 0.631 | phosphorylation enrichment (Fes): 0.903 | phosphorylation enrichment (AncSZ): 0.96 | phosphorylation enrichment (EPHB2): 0.379 | phosphorylation enrichment (FGFR1): 0.477 | phosphorylation enrichment (Hck): 0.429 | phosphorylation enrichment (c-Abl (mouse)): 0.517 | phosphorylation enrichment (Fer (mouse)): 0.451 | phosphorylation enrichment (FGFR3): 0.573 | phosphorylation enrichment (MERTK): 0.416
